Strand notation (5' to 3'): a small letter for the sugar, then the base; units joined by * are phosphorothioate-linked, units joined directly phosphodiester-linked; [ ] holds rarer units or linkages, { } end groups; capitals alone tell only the bases. m = 2'-O-methyl; r = 2'-OH (RNA)
B1: G000494: TTR sgRNA modified sequence, Human, SEQ ID No. 101; guide sequence of CR003360 (nucleic acid)
guide: mG*mU*mG*rArGrUrCrUrGrGrArGrArGrCrUrGrCrArUrGrUrUrUrUrArGrAmGmCmUmAmGmAmAmAmUmAmGmCrArArGrUrUrArArArArUrArArGrGrCrUrArGrUrCrCrGrUrUrArUrCrAmAmCmUmUmGmAmAmAmAmAmGmUmGmGmCmAmCmCmGmAmGmUmCmGmGmUmGmCmU*mU*mU*mU
B2: G000499: TTR sgRNA modified sequence, Human, SEQ ID No. 106; guide sequence of CR005303 (nucleic acid)
guide: mU*mG*mA*rArUrCrCrArArGrUrGrUrCrCrUrCrUrGrArGrUrUrUrUrArGrAmGmCmUmAmGmAmAmAmUmAmGmCrArArGrUrUrArArArArUrArArGrGrCrUrArGrUrCrCrGrUrUrArUrCrAmAmCmUmUmGmAmAmAmAmAmGmUmGmGmCmAmCmCmGmAmGmUmCmGmGmUmGmCmU*mU*mU*mU
B3: G000480: TTR sgRNA modified sequence, Human, SEQ ID No. 87; guide sequence of CR003353 (nucleic acid)
guide: mA*mA*mA*rGrGrCrUrGrCrUrGrArUrGrArCrArCrCrUrGrUrUrUrUrArGrAmGmCmUmAmGmAmAmAmUmAmGmCrArArGrUrUrArArArArUrArArGrGrCrUrArGrUrCrCrGrUrUrArUrCrAmAmCmUmUmGmAmAmAmAmAmGmUmGmGmCmAmCmCmGmAmGmUmCmGmGmUmGmCmU*mU*mU*mU
B4: G000481: TTR sgRNA modified sequence, Human, SEQ ID No. 88; guide sequence of CR003345 (nucleic acid)
guide: mU*mC*mU*rArGrArArCrUrUrUrGrArCrCrArUrCrArGrGrUrUrUrUrArGrAmGmCmUmAmGmAmAmAmUmAmGmCrArArGrUrUrArArArArUrArArGrGrCrUrArGrUrCrCrGrUrUrArUrCrAmAmCmUmUmGmAmAmAmAmAmGmUmGmGmCmAmCmCmGmAmGmUmCmGmGmUmGmCmU*mU*mU*mU
B5: G000486: TTR sgRNA modified sequence, Human, SEQ ID No. 93; guide sequence of CR003339 (nucleic acid)
guide: mA*mC*mA*rCrArArArUrArCrCrArGrUrCrCrArGrCrArGrUrUrUrUrArGrAmGmCmUmAmGmAmAmAmUmAmGmCrArArGrUrUrArArArArUrArArGrGrCrUrArGrUrCrCrGrUrUrArUrCrAmAmCmUmUmGmAmAmAmAmAmGmUmGmGmCmAmCmCmGmAmGmUmCmGmGmUmGmCmU*mU*mU*mU

What was measured:
human TTR sequence = experiment: Liver editing in humanized TTR mice dosed with LNP formulations (Table 26); assay type: in vivo, mouse; conditions: for Liver editing: LNP Formulation Numbers 1-5, Cas9 mRNA SEQ ID NO:2, 2 mg/kg total RNA, mean values, FIG. 9; for % Editing: Table 26, liver editing, LNP Formulation Numbers 6-16, 1 mg/kg (total RNA content)
Description: Unless otherwise noted, CD-1 female mice, ranging from 6-10 weeks of age were used in each study. Animals were weighed and grouped according to body weight for preparing dosing solutions based on group average weight. LNPs were dosed via the lateral tail vein in a volume of 0.2 mL per animal (approximately 10 mL per kilogram body weight). […] Body weight was measured at twenty-four hours post-administration, and animals were euthanized at various time points by exsanguination via cardiac puncture under isoflourane anesthesia. Blood was collected into serum separator tubes or into tubes containing buffered sodium citrate for plasma as described herein. For studies involving in vivo editing, liver tissue was collected from the median lobe or from three independent lobes (e.g., the right median, left median, and left lateral lobes) from each animal for DNA extraction and analysis.
To quantitatively determine the efficiency of editing at the target location in the genome, sequencing was utilized to identify the presence of insertions and deletions introduced by gene editing.
Primers were designed around the target site within the gene of interest (e.g. TTR), and the genomic area of interest was amplified.
Additional PCR was performed per the manufacturer's protocols (Illumina) to add chemistry for sequencing. The amplicons were sequenced on an Illumina MiSeq instrument. The reads were aligned to a reference genome (e.g., the human reference genome (hg38), the cynomologus reference genome (mf5), the rat reference genome (rn6), or the mouse reference genome (mm10)) after eliminating those having low quality scores. The resulting files containing the reads were mapped to the reference genome (BAM files), where reads that overlapped the target region of interest were selected and the number of wild type reads versus the number of reads which contain an insertion, substitution, or deletion was calculated.
The editing percentage (e.g., the “editing efficiency” or “percent editing” or “indel frequency”) is defined as the total number of sequence reads with insertions/deletions (“indels”) or substitutions over the total number of sequence reads, including wild type.
Mice humanized with respect to the TTR gene were dosed with LNP formulations 701-704 containing the guides indicated in Table 25 (5 mice per formulation). These humanized TTR mice were engineered such that a region of the endogenous murine TTR locus was deleted and replaced with an orthologous human TTR sequence so that the locus encodes a human TTR protein. For comparison, 6 mice with murine TTR were dosed with LNP700, containing a guide (G000282) targeting murine TTR. […]

[1] = test system: potential off-target sites; experiment: Targeted amplicon sequencing of potential off-target sites in PHH treated with LNPs (Tables 31-33); assay type: cell-based, human; conditions: for Indel Frequency (using LNP with 100 ng Cas9 mRNA and 14.68 nM gRNA) / Indel rate at the on-target site / Indels at in silico predicted off-target sites / Number of potential off-target sites identified by the oligo insertion assay at which indels were detected: PHH treated with LNP; for Indel Frequency (using LNP with 100 ng Cas9 mRNA and 14.68 nM gRNA): NGS targeted amplicon sequencing; for Indel rate at the on-target site / Indels at in silico predicted off-target sites / Number of potential off-target sites identified by the oligo insertion assay at which indels were detected: 100 ng Cas9 mRNA (SEQ ID NO:1), near-saturating dose; for Indel rate at the on-target site: gRNA 14.68 nM; for Number of potential off-target sites identified by the oligo insertion assay at which indels were detected: indels at low levels; for On-target indel rate at highest concentration without detected off-target sites / Highest gRNA concentration at which the potential off-target sites were no longer detected: PHH; for On-target indel rate at highest concentration without detected off-target sites: G000480 at 0.57 nM, G000486 at 15.51 nM gRNA; for Highest gRNA concentration at which the potential off-target sites were no longer detected: LNP dose response, 11 points 0.001-46.55 nM gRNA
Description: The HEK293_Cas9 cells used in Example 5 for detecting potential off-targets constitutively overexpress Cas9, leading to a higher number of potential off-target “hits” as compared to a transient delivery paradigm in various cell types. […] Accordingly, potential off-target sites identified by an oligo insertion method as used in Example 5 may be validated using targeted sequencing of the identified potential off-target sites.
In one approach, primary hepatocytes are treated with LNPs comprising Cas9 mRNA and a sgRNA of interest (e.g., a sgRNA having potential off-target sites for evaluation). The primary hepatocytes are then lysed and primers flanking the potential off-target site(s) are used to generate an amplicon for NGS analysis. Identification of indels at a certain level may validate potential off-target site, whereas the lack of indels found at the potential off-target site may indicate a false positive in the HEK293_Cas9 cell assay.
Following the identification of potential off-target sites in […] via the oligo insertion assay, certain potential sites were further evaluated by targeted amplicon sequencing, e.g., as described in Example 6. In addition to the potential off-target sites identified by the oligo insertion strategy, additional potential off-target sites identified by in silico prediction were included in the analysis.
To this end, PHH were treated with LNPs comprising 100 ng of Cas9 mRNA (SEQ ID NO:1) and the gRNA of interest at 14.68 nM (in a 1:1 ratio by weight), as described in Example 4. The LNPs were prepared using the cross-flow procedure described above and purified and concentrated using PD-10 columns and Amicon centrifugal filter units, respectively. The LNPs were formulated with an N:P ratio of 6.0 and contained Lipid A, Cholesterol, DSPC, and PEG2k-DMG in a 50:38:9:2 molar ratio, respectively. Following LNP treatment, isolated genomic DNA was analyzed by NGS (e.g., as described in Examples 1 and 6) to determine whether indels could be detected at the potential off-target site, which would be indicative of a Cas9-mediated cleavage event. Tables 31 and 32 show the potential off-target sites that were evaluated for the gRNAs G000480 and G000486, respectively.
As shown in FIGS. 21A-B and 22A-B and Table 33 below, indels were detected at low levels for only two of the potential off-target sites identified by the oligo insertion assay for G000480, and only one for G000486. […] Further, indels were only detected at these sites using a near-saturating dose of LNP, as the indel rates observed at the on-target sites for G000480 and G000486 were ˜97% and ˜91%, respectively (See Table 33).
A dose response assay was then performed in order to determine the highest dose of LNP in which no off-targets were detected. PHH were treated with LNPs comprising either G000480 or G000486 as described in Example 4. The doses ranged across 11 points with respect to gRNA concentration (0.001 nM, 0.002 nM, 0.007 nM, 0.02 nM, 0.06 nM, 0.19 nM, 0.57 nM, 1.72 nM, 5.17 nM, 15.51 nM, and 46.55 nM).

[2] = Off-Target site INS-OT.4 (of the respective guide)

Molecule	Liver editing (human TTR sequence) [%]	% Editing (human TTR sequence) [%]	Indel Frequency (using LNP with 100 ng Cas9 mRNA and 14.68 nM gRNA) ([1]; Off-Target site INS-OT.2) [%]	Indel Frequency (using LNP with 100 ng Cas9 mRNA and 14.68 nM gRNA) [1, 2] [%]	Indel Frequency (using LNP with 100 ng Cas9 mRNA and 14.68 nM gRNA) ([1]; On-Target site) [%]	Indel rate at the on-target site [1] [%]	Indels at in silico predicted off-target sites [1]	Number of potential off-target sites identified by the oligo insertion assay at which indels were detected [1]	On-target indel rate at highest concentration without detected off-target sites [1] [%]	Highest gRNA concentration at which the potential off-target sites were no longer detected [1] [nM]
B1	~60	–	–	–	–	–	–	–	–	–
B2	~60	65.66	–	–	–	–	–	–	–	–
B3	–	–	1.43	0.97	97.33	~97	No indels were detected	two	84.60	0.57
B4	–	61.28	–	–	–	–	–	–	–	–
B5	–	–	–	0.47	91.33	~91	No indels were detected	one	89.50	15.51

— US11795460B2, “Compositions and methods for TTR gene editing and treating ATTR amyloidosis” (Intellia Therapeutics, Inc., priority 2017, dated 2023)
